Data as given in article PMC12318175.
Like-named read-outs stand apart in the source and are kept apart here.

B1: Cy5-WT (Foxp3 pro) (dsDNA)
DNA 1: AAGTGTGGGTATGGGAGCCAGACTGTCTGGAACAACCTA
DNA 2: TAGGTTGTTCCAGACAGTCTCGCTCCCATACCCACACTT
B2: Cy5-5mC8-oxoG/GC (Foxp3 CNS2) (dsDNA)
DNA 1: GCCGATGAAGCCCAATGCATCCGGCCGCCATGACGTCA
DNA 2: TGACGTCATGGCGGCCGGATGCATTGGGCTTCATCGGC
modifications: 5mC at sense C22; 8-oxoG at sense G23

Tests used:
GST-OGG1 [1] = target: T1, GST-OGG1 (mouse, UniProt O08760 1-345); experiment: EMSA
T1 sequence (O08760 whole entry): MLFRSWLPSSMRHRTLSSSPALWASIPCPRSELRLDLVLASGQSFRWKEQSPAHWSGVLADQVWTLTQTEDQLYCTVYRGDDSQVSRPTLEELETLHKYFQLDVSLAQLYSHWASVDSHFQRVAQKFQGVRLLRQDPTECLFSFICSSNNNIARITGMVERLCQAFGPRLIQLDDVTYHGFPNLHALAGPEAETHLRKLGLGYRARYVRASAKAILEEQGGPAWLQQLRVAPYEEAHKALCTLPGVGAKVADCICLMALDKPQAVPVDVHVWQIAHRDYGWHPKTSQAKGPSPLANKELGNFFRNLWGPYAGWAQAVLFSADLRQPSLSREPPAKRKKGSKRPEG

GST-OGG1 [2] = target: T1, GST-OGG1; experiment: EMSA; remark: listed apart in the source

Binder | binding result (GST-OGG1 [1]) | binding result (GST-OGG1 [2])
B1 | no binding | –
B2 | – | binds
